In assay [1] the target is vasopressin-1 receptor of rat liver cell membranes (rat) (UniProt P30560). Kind of assay: competition with 3H-vasopressin-1 antagonist on rat liver membranes, metallopeptide at 1 µM.
In assay [2] the target is oxytocin receptor of rat uterus cell membranes (rat) (UniProt P70536). Kind of assay: competition with 3H-oxytocin on rat uterus membranes, metallopeptide at 1 µM.
Assay [3] has as its target MC1-R of B-16 mouse melanoma cells (mouse) (UniProt Q01727). Kind of assay: competition with 0.4 nM 125I-NDP-alpha-MSH on B-16 mouse melanoma cell membranes, metallopeptide at 1 µM.
A further assay addresses hMC5-R (human) (UniProt P33032). Kind of assay: competition with 0.4 nM 125I-NDP-alpha-MSH on hMC5-R membranes, metallopeptide at 1 µM.
The target in another assay is hMC3-R (human) (UniProt P41968). Kind of assay: competition with 0.4 nM 125I-NDP-alpha-MSH on hMC3-R membranes, metallopeptide at 1 µM.
In the next assay the target is hMC4-R (human) (UniProt P32245). Kind of assay: competition with 0.4 nM 125I-NDP-alpha-MSH on hMC4-R membranes, metallopeptide at 1 µM.

Square brackets hold non-standard residues; d marks the D form. Ends that are not written are not given here. * marks the point of attachment. Cyclohexylacetyl(1-SH) = O=C(CC1(S)CCCCC1)*; Cyclohexylacetyl = O=C(CC1CCCCC1)*; dChg = N[C@@H](C(=O)O)C1CCCCC1; Chg = N[C@H](C(=O)O)C1CCCCC1; Nle = CCCC[C@H](N)C(=O)O; Orn = NCCC[C@H](N)C(=O)O; Dap = NC[C@H](N)C(=O)O

Sequence of MC1-R of B-16 mouse melanoma cells (mouse) (Q01727 whole entry): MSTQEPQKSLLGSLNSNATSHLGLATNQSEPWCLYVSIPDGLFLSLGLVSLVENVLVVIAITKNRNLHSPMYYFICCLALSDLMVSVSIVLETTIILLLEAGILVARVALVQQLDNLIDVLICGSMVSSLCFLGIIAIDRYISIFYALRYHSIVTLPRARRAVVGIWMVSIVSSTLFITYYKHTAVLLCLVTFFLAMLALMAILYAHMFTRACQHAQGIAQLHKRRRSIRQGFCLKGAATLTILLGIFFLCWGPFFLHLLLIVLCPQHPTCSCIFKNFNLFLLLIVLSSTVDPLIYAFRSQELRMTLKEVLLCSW
Sequence of hMC3-R (human) (P41968 whole entry): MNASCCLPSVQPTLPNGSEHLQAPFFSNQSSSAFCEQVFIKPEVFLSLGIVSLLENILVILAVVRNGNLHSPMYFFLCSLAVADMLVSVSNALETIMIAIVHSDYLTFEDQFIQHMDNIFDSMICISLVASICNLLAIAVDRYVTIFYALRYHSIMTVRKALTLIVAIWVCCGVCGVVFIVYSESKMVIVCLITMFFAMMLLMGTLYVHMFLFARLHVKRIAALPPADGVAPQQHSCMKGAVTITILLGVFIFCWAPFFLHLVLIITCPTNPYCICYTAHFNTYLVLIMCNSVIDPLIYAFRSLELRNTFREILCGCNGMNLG
Sequence of oxytocin receptor of rat uterus cell membranes (rat) (P70536 whole entry): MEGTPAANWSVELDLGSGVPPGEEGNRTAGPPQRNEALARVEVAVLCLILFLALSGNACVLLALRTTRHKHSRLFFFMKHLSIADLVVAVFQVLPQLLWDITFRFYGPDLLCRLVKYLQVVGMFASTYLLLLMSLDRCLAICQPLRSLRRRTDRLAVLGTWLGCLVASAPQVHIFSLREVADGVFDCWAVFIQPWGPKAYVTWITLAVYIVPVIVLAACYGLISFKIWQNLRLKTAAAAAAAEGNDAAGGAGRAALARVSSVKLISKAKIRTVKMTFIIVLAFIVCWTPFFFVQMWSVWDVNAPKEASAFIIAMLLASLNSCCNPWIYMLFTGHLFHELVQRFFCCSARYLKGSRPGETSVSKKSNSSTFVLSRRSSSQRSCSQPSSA
Sequence of hMC5-R (human) (P33032 whole entry): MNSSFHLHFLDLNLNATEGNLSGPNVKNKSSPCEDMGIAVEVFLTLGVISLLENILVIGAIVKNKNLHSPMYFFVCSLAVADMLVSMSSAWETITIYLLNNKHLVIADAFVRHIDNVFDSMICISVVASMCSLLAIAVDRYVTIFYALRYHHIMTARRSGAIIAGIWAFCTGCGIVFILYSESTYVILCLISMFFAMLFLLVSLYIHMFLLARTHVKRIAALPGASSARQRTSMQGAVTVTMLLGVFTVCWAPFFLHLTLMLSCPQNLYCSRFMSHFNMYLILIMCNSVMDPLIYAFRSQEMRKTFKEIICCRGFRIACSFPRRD
Sequence of vasopressin-1 receptor of rat liver cell membranes (rat) (P30560 whole entry): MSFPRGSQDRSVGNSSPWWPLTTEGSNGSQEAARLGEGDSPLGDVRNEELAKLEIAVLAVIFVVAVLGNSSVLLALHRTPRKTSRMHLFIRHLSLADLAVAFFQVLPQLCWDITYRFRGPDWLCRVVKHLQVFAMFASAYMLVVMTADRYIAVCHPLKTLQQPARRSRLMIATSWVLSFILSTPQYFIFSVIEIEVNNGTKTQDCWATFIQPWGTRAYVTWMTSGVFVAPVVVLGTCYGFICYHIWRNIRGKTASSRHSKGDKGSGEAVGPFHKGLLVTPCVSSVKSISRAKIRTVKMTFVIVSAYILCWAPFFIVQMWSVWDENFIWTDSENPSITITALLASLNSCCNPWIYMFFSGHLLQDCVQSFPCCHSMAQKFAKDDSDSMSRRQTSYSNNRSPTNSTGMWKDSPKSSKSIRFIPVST
Sequence of hMC4-R (human) (P32245 whole entry): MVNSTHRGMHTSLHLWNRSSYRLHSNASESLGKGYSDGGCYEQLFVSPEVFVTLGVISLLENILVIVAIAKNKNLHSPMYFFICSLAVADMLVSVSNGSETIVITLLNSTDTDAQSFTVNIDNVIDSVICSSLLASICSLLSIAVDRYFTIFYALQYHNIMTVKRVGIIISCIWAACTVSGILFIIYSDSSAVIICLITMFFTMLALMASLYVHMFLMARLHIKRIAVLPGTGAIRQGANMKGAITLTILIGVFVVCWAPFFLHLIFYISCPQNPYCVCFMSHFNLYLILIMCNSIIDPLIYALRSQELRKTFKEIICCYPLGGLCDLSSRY

B1: Re-complexed D-Chg-D-Trp-Cys-Ile-Thr-Dap-Ala-Pro-Orn-NH2 (peptide)
peptide: [dChg][dW]CIT[Dap]AP[Orn]-NH2
modifications: bridge (positions not given here); not fully specified (bridges); printed as Re-complexed D-Chg-D-Trp-Cys-Ile-Thr-Dap-Ala-Pro-Orn-NH2; also: oxorhenium(V) metal complex
Turning to B1, the % Inhibition (usually the drop in the measured response relative to a control, in per cent) at 1 µM stood at 8% in assay [1] and 0% in assay [2].

B2: Re-complexed Ac-Nle-Ala-His-Cys-D-Phe-Arg-Trp-NH2 (peptide)
peptide: Ac-[Nle]AHC[dF]RW-NH2
modifications: bridge (positions not given here) via ReOCl3(PPh3)2; also: oxorhenium(V) metal complex
As for B2, the % Inhibition at 1 µM in assay [3] worked out at 84%; in the assay with hMC5-R (human), 58%; with hMC3-R (human), 9%; with hMC4-R (human), 75%.

B3: Re-complexed Caca-D-Trp-Ile-Thr-Dap-Ala-Ala-Cys-Orn-NH2 (peptide)
peptide: Cyclohexylacetyl-[dW]IT[Dap]AAC[Orn]-NH2
modifications: numbers in words are those of the source; also: rhenium-oxo (Re(V)=O) complex at Cys8
For B3, the % Inhibition at 1 µM in assay [1] and in assay [2] was 0% throughout.

B4: Re-complexed Caca-D-Trp-Ile-Thr-Dap-Ala-Cys-Ala-Orn-NH2 (peptide)
peptide: Cyclohexylacetyl-[dW]IT[Dap]ACA[Orn]-NH2
modifications: not fully specified (bridges); printed as Caca-D-Trp-Ile-Thr-*Dap-Ala-Cys*-Ala-Orn-NH₂; numbers in words are those of the source; also: Cys7 complexed to rhenium-oxo (Re=O)
For B4, the % Inhibition at 1 µM in assay [1] and in assay [2] was 0% each time.

B5: Re-complexed Caca-D-Trp-Ile-Thr-Dap-Ala-Cys-Pro-Orn-NH2 (peptide)
peptide: Cyclohexylacetyl-[dW]IT[Dap]ACP[Orn]-NH2
modifications: not fully specified (bridges); printed as Caca-D-Trp-Ile-Thr-*Dap-Ala-Cys*-Pro-Orn-NH₂; numbers in words are those of the source; also: Cys7 complexed to rhenium-oxo (Re=O)
Turning to B5, the % Inhibition at 1 µM in assay [1] and in assay [2] was 0% in each case.

B6: Re-complexed Ac-Nle-Ala-Cys-His-D-Phe-Arg-Trp-NH2 (peptide)
peptide: Ac-[Nle]ACH[dF]RW-NH2
modifications: bridge (positions not given here) via ReOCl3(PPh3)2; also: oxorhenium(V) N3S1 metal chelate (X-X-Cys)
Take B6: the % Inhibition at 1 µM is 96% in assay [3], 64% with hMC5-R (human), 47% with hMC3-R (human) and 71% with hMC4-R (human).

B7: Re-complexed Pmp-D-Trp-Cys-Ile-Thr-Dap-Ala-Pro-Orn-NH2 (peptide)
peptide: {Cyclohexylacetyl(1-SH)}-[dW]CIT[Dap]AP[Orn]-NH2
modifications: not fully specified (bridges); printed as *Pmp-D-Trp-Cys*-Ile-Thr-Dap-Ala-Pro-Orn-NH₂; numbers in words are those of the source; also: Cys3 complexed to rhenium-oxo (Re=O)
As for B7, the % Inhibition at 1 µM came out at 23% in assay [1] and 0% in assay [2].

B8: Re-complexed Chg-D-Trp-Cys-Ile-Thr-Dap-Ala-Pro-Orn-NH2 (peptide)
peptide: [Chg][dW]CIT[Dap]AP[Orn]-NH2
modifications: not fully specified (bridges); printed as Re-complexed Chg-D-Trp-Cys-Ile-Thr-Dap-Ala-Pro-Orn-NH2; also: Cys3 complexed to rhenium-oxo (Re=O)
As to B8, the % Inhibition at 1 µM in assay [1] and in assay [2] was 0% in each case.

B9: Re-complexed Ac-Nle-Ala-His-D-Phe-Cys-Arg-Trp-NH2 (peptide)
peptide: Ac-[Nle]AH[dF]CRW-NH2
modifications: bridge (positions not given here) via ReOCl3(PPh3)2; also: oxorhenium(V) metal complex
For B9, the % Inhibition at 1 µM in assay [3] was 93%; with hMC5-R (human), 57%; in the assay with hMC3-R (human), 15%; with hMC4-R (human), 66%.

B10: Re-complexed Caca-D-Trp-Ile-Cys-Thr-Dap-Ala-Pro-Orn-NH2 (peptide)
peptide: Cyclohexylacetyl-[dW]ICT[Dap]AP[Orn]-NH2
modifications: not fully specified (bridges); printed as Caca-D-*Trp-Ile-Cys*-Thr-Dap-Ala-Pro-Orn-NH₂; numbers in words are those of the source; also: Cys4 complexed to rhenium-oxo (Re=O)
As for B10, the % Inhibition at 1 µM in assay [1] was found to be 52%; in assay [2], 0%.

B11: Re-complexed Caca-D-Trp-Ile-Thr-Dap-Cys-Ala-Pro-Orn-NH2 (peptide)
peptide: Cyclohexylacetyl-[dW]IT[Dap]CAP[Orn]-NH2
modifications: not fully specified (bridges); printed as Caca-D-Trp-Ile-*Thr-Dap-Cys*-Ala-Pro-Orn-NH₂; numbers in words are those of the source; also: Cys6 complexed to rhenium-oxo (Re=O)
As to B11, the % Inhibition at 1 µM in assay [1] is 22%; in assay [2] it was 9%.

B12: Re-complexed Caca-D-Trp-Ile-Thr-Cys-Dap-Ala-Pro-Orn-NH2 (peptide)
peptide: Cyclohexylacetyl-[dW]ITC[Dap]AP[Orn]-NH2
modifications: not fully specified (bridges); printed as Caca-D-Trp-*Ile-Thr-Cys*-Dap-Ala-Pro-Orn-NH₂; numbers in words are those of the source; also: Cys5 complexed to rhenium-oxo (Re=O)
On to B12, for which the % Inhibition at 1 µM in assay [1] and in assay [2] was 0% throughout.

B13: Re-complexed Ac-Nle-Ala-His-D-Phe-Arg-Cys-Trp-NH2 (peptide)
peptide: XAHFRCW
modifications: N-terminal acetyl; X at 1 = Nle; D-Phe at 4; Cys 6 complexed to a rhenium-oxo (Re) metal ion; C-terminal amide
The molecule B13 yielded a % Inhibition at 1 µM in assay [3] of 96%.

B14: Re-complexed Ac-Nle-Ala-His-D-Phe-Arg-Trp-Cys-NH2 (peptide)
peptide: Ac-[Nle]AH[dF]RWC-NH2
modifications: bridge (positions not given here) via ReOCl3(PPh3)2; also: oxorhenium(V) metal complex
B14: the % Inhibition at 1 µM in assay [3] is 91%; with hMC5-R (human), 93%; with hMC3-R (human), 70%; in the assay with hMC4-R (human), 98%.

B15: Re-complexed Caca-D-Trp-Ile-Thr-Dap-Ala-Ala-Orn-Cys-NH2 (peptide)
peptide: Cyclohexylacetyl-[dW]IT[Dap]AA[Orn]C-NH2
modifications: numbers in words are those of the source; also: rhenium-oxo (Re(V)=O) complex at Cys9
In the case of B15, the % Inhibition at 1 µM worked out at 23% in assay [1] and 0% in assay [2].

Values taken from patent publication EP1379283B1, “IDENTIFICATION OF TARGET-SPECIFIC FOLDING SITES IN PEPTIDES AND PROTEINS” (Palatin Technologies, Inc., priority 2000, dated 2002).
